# Test system: T1, L-JBD20 peptide (20 amino acid minimal JNK-inhibitory sequence of JIP-IB1)
# T1 sequence: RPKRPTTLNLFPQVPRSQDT
substance,measurement,value
p34,p34 kinase activity (substrate histone) at the tested peptide concentration,"500 µM of the JBD20 peptides did not interfere with the activity of 6 particular kinases: ERK2, p38, pKC, p34, caK and pKA"
pKA,pKA kinase activity (substrate histone) at the tested peptide concentration,"500 µM of the JBD20 peptides did not interfere with the activity of 6 particular kinases: ERK2, p38, pKC, p34, caK and pKA"
p38,p38 kinase activity (substrate ATF2) at the tested peptide concentration,"500 µM of the JBD20 peptides did not interfere with the activity of 6 particular kinases: ERK2, p38, pKC, p34, caK and pKA"
pKC,pKC kinase activity (substrate histone) at the tested peptide concentration,"500 µM of the JBD20 peptides did not interfere with the activity of 6 particular kinases: ERK2, p38, pKC, p34, caK and pKA"
caK,caK kinase activity (substrate caseine) at the tested peptide concentration,"500 µM of the JBD20 peptides did not interfere with the activity of 6 particular kinases: ERK2, p38, pKC, p34, caK and pKA"

# Source: patent US20040082509
